Positions count from the first letter of the chain named. Blank lines part the entries; values can stand above or below the binder they belong to.
Columns and labels:
human IL-2Rα [1] = target: T1, human IL-2Rα (human, UniProt P01589 22-240, limits assumed); test: ELISA, P.E. on coated antigen
T1 construct: recombinant protein; also called hu IL-2R; human IL-2Ra
T1 sequence: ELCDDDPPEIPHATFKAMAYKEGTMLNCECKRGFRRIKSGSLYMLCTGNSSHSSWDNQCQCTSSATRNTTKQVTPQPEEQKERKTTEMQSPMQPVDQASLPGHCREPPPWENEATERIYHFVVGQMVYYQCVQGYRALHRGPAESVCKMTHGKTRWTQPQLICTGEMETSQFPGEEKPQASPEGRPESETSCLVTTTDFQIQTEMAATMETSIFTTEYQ
Protocol: (§1) In a binding ELISA, human or mouse IL-2Rα, IL-2Rβ and IL-2Rγ proteins were coated directly on maxisorp microtiter plates overnight at 4° C. Free binding sites were blocked using 4% Marvel in PBS for 1 hour. Next, 1:5 dilution of P.E. in 1% Marvel/PBS were added to wells and incubated for 1 hour. […] Binding specificity was determined based on O.D. at 450 nm values compared to negative controls.

human IL-2Rα [2] = target: T1, human IL-2Rα; test: SPR, P.E. on immobilised antigen
Protocol: (§2) SPR was performed to determine dissociation rates using Biacore 3000 instrument (GE Healthcare). Briefly, human and mouse IL-2R proteins were immobilized on carboxylmethyl dextran sensor chip (CM5) at approximately 2500 RUs using amine coupling in acetate buffer (GE Healthcare). The VHH-containing P.E. were loaded with a flow rate of 30 uL/min and the off-rates were measured over a 120s period.

[3] = target: T2, human IL-2Rγ (common cytokine receptor γ-chain) (human, UniProt P31785 23-262, limits assumed); test: PE binding ELISA, periplasmic extract on coated protein
T2 construct: Recombinant protein coated on the plate or immobilised on a CM5 chip; also called hu IL-2R; CD132
T2 sequence: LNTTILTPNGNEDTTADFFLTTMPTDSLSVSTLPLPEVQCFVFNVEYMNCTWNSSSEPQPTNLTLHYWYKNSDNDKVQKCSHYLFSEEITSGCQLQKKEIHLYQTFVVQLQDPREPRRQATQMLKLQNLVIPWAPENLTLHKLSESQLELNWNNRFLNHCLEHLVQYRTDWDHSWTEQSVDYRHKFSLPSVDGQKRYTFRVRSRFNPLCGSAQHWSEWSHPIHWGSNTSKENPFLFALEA
Protocol: as §1

[4] = target: T2, human IL-2Rγ (common cytokine receptor …); test: SPR off-rate ranking, periplasmic extract on immobilised protein
Protocol: as §2

- OD (PE binding ELISA) (human IL-2Rα [1]): 2.54 OD450 nm
- koff (human IL-2Rα [2]): 0.000799 s⁻¹
B1: 3-MP01E03 (VHH)
VHH: QVQLVESGGGLVQAGGSLRLSCTASGRTLSSYSMAWFRQAADKGREFVTAISSSGVVTHVLDSVKGRFTISRDNAKNTVYLQMNSLQPEDTALYFCAGTASSYSTYEANYNYWGQGTLVTVSS
notes: periplasmic extract; also called FJ1427_P035MP01E03

- OD (PE binding ELISA) (human IL-2Rα [1]): 2.14 OD450 nm
- koff (human IL-2Rα [2]): 0.00112 s⁻¹
B2: FJ1427_P035MP01H07 (VHH)
VHH: B1 VHH with Q1E, T23A, S31G, S33A, A40P, A41P, V56I, G98A, T105D
notes: periplasmic extract; also called clone nr; 56

- OD (PE binding ELISA) (human IL-2Rα [1]): 2.51 OD450 nm
- koff (human IL-2Rα [2]): 0.000677 s⁻¹
B3: FJ1427_P035MP05D06 (VHH)
VHH: QVQLVESGGGLVQAGDSLRLSCAASGFNFGWHAMGWFRQAPGKEREFVATITWTGRDTYYADSVRGRFTISKDNAKDTLFLQMNSLRPDDTGVYYCAKARERATWAYSEDDCDYWGQGTQVTVSS
notes: periplasmic extract; also called clone nr

- OD (PE binding ELISA) (human IL-2Rα [1]): 2.51 OD450 nm
- koff (human IL-2Rα [2]): 0.00067 s⁻¹
B4: FJ1427_P035MP05F06 (VHH)
VHH: B3 VHH with Q1E
notes: periplasmic extract; also called clone nr; 430

- OD (PE binding ELISA) (human IL-2Rα [1]): 2.34 OD450 nm
- koff (human IL-2Rα [2]): 0.000742 s⁻¹
B5: 13-MP05E12 (VHH)
VHH: B3 VHH with V5Q
notes: periplasmic extract; The row prints V ID 13-MP05E12 beside Clone ID ...MP05H07; clone nr; also called FJ1427_P035MP05H07

- OD (PE binding ELISA) (human IL-2Rα [1]): 2.51 OD450 nm
- koff (human IL-2Rα [2]): 0.000591 s⁻¹
B6: FJ1427_P035MP05H05 (VHH)
VHH: B3 VHH with D77N, N84S
notes: as for B3

- OD (PE binding ELISA) (human IL-2Rα [1]): 2.62 OD450 nm
- koff (human IL-2Rα [2]): 0.00042 s⁻¹
B7: 5-MP01F05 (VHH)
VHH: EVQLVESGGGLVQAGGSLRLSCAASIRAFTTWSMAWFRQAPGKEREYVARINVSGSVTYYADFVKGRFTISRDNAKKTMYLEMNNLKPEDTALYYCAADRTGVGTNDYNYWGQGTQVTVSS
notes: periplasmic extract; also called FJ1427_P035MP01F05

- OD (PE binding ELISA) (human IL-2Rα [1]): 1.79 OD450 nm
- koff (human IL-2Rα [2]): 0.0206 s⁻¹
B8: 6-MP01G05 (VHH)
VHH: QVQLQESGGGLVQAGGSLRLSCAASGRTFSSYAMGWFRQAPGKEREFVAVISWNVDNTEYTDSVKGRFTISRDNDKNMVYLQMNSLKPEDTAVYYCAADSIPLSSDMSPTATEYGYWGQGTQVTVSS
notes: periplasmic extract; also called FJ1427_P035MP01G05

- OD (PE binding ELISA) (human IL-2Rα [1]): 2.81 OD450 nm
- koff (human IL-2Rα [2]): 0.000778 s⁻¹
B9: FJ1427_P035MP01A11 (VHH)
VHH: QVQLVESGGGLVQPGGSLRLSCAASGRTFETHNMGWFRRAPGKEREFVAVISWNVDSTEYTDSVKGRFTISRDNDKNMVYLQMNSLKPEDTGVYYCAADNIPLSSDMSPTAAEYGYWGQGTQVTVSS
notes: periplasmic extract; also called clone nr; 81

- OD (PE binding ELISA) (human IL-2Rα [1]): 2.57 OD450 nm
- koff (human IL-2Rα [2]): 0.00184 s⁻¹
B10: 07-MP01G08 (VHH)
VHH: EVQLVESGGGLVQAGGSLRLSCAASGRAFSMYNMGWFRQAPGKEREFVAATGWSGANTPYADSVKGRFTISRDNTQNTVYLQMNSLKPEDTATYYCAADSIRLRSDVTRIPLEYDYWGQGTQVTVSS
notes: periplasmic extract; also called FJ1427_P035MP01G08

- OD (PE binding ELISA) (human IL-2Rα [1]): 1.71 OD450 nm
- koff (human IL-2Rα [2]): 0.0229 s⁻¹
B11: 1-MP01H01 (VHH)
VHH: EVQLVESGGGLVQAGGSLRLSCAASGRTFRTHNMGWFRRAPGKEREFVAAISWNVDNTLYADSVKGRFTISRDNGRNMVYLQMNSLKPEDTAVYYCAADNIPLSSDVAATATEYDYWGQGTQVTVSS
notes: periplasmic extract; also called FJ1427_P035MP01H01

- OD (PE binding ELISA) (human IL-2Rα [1]): 2.62 OD450 nm
- koff (human IL-2Rα [2]): 0.000725 s⁻¹
B12: FJ1427_P035MP01H11 (VHH)
VHH: B11 VHH with E1Q, G75D, Y95F, A108R, Y114F, D115G, Q122R
notes: periplasmic extract; also called clone nr; 88

- OD (PE binding ELISA) (human IL-2Rα [1]): 2.6 OD450 nm
B13: FJ1427_P035MP01H08 (VHH)
VHH: B11 VHH with G10R, A14S, T28A, R30S, T58K, D62N, T69A, V107M, A108R, Y116V
notes: periplasmic extract; also called clone nr; 64

- OD (PE binding ELISA) (human IL-2Rα [1]): 2.52 OD450 nm
- koff (human IL-2Rα [2]): 0.000414 s⁻¹
B14: FJ1427_P035MP01G01 (VHH)
VHH: B11 VHH with E1Q, V5Q, G75D, Y95F, A108R, Y114F, D115G, Q122R
notes: as for B3

- OD (PE binding ELISA) (human IL-2Rα [1]): 2.59 OD450 nm
- koff (human IL-2Rα [2]): 0.000498 s⁻¹
B15: FJ1427_P035MP01E05 (VHH)
VHH: B11 VHH with E1Q, K43E, A50V, T58K, A108R, Y114F, D115G
notes: periplasmic extract; also called clone nr; 37

- OD (PE binding ELISA) (human IL-2Rα [1]): 2.62 OD450 nm
- koff (human IL-2Rα [2]): 0.000842 s⁻¹
B16: FJ1427_P035MP01D08 (VHH)
VHH: B11 VHH with R27G, H32R, I51V, T58K, D62G, V107M, A108R, A109P
notes: periplasmic extract; also called clone nr; 60

- OD (PE binding ELISA) [3]: 0.593 OD450 nm
- koff [4]: 0.0165 s⁻¹
B17: FJ1427_P035MP04A11 (VHH)
VHH: QVQLVESGGGLVQAGESLRLSCAASGPTASRVAVAWFRQVPGKEREFVAVVNRPGTMTKYADSVKGRFTISRDSAKNTVYLQMNSLKPEDTAVYYCAADSVPYGRPYYFQTSAGNYDYWGQGTQVTVSS
notes: VHH in periplasmic extract; also called clone nr
